Consider five substances from patent US12364743B2, “Microbiota sequence variants of tumor-related antigenic epitopes” (ENTEROME S.A., priority 2016, dated 2025).

The target in one experiment is T1, HLA-A*0201 (Homo sapiens, UniProt P04439, D140Y/D185E/D98H/E176V/E277Q/G131W/G231S/I119V/I121R/I166T/I218V/L300P/L318F/N151K/N90K/P208A/P217A/Q86G/Q94H/R138H/R169H/T345S).
T1 construct: the human tumoral cell T2 which expresses the HLA-A*0201 molecule, but which is TAP 1/2 negative; endogenous in cells; host or cells: T2 cells (human, TAP 1/2 negative)
The experiment is described as follows: Affinity of peptides to HLA-A*0201 on T2 cells (FACS, anti-HLA-A2). In kind it is binding. As to conditions: for binding affinity to HLA-A*0201 compared among peptides: Example 5; for concentration inducing 20% of expression of the HLA-A*0201: 100% = reference peptide HIV pol 589-597 at 100 μM; for Mean fluorescence intensity: 16 hours. An excerpt:
The experimental protocol is similar to the one that was validated for peptides presented by the HLA-A*0201 (Tourdot et al., A general strategy to enhance immunogenicity of low-affinity HLA-A2.1-associated peptides: implication in the identification of cryptic tumor epitopes. Eur J Immunol. 2000 December; […]:3411-21). Affinity measurement of the peptides is achieved with the human tumoral cell T2 which expresses the HLA-A*0201 molecule, but which is TAP 1/2 negative and incapable of presenting endogenous peptides.
T2 cells (2.10^5 cells per well) were incubated with decreasing concentrations of peptides from 100 μM to 0.1 μM in a AIMV medium supplemented with 100 ng/μl of human β2m at 37° C. for 16 hours. Cells were then washed two times and marked with the anti-HLA-A2 antibody coupled to PE (clone BB7.2, BD Pharmagen).
The analysis was performed by FACS (Guava Easy Cyte). […] A2. Solubilisation of Peptides
The experimental protocol, materials and methods correspond to those outlined in Example 4, with the only difference that the above mentioned antigenic peptides were used.

A further experiment relates to β/A2/DR3 mice. The experiment in a line: ELISPOT-IFNγ on splenocytes of vaccinated mice. Format: in vivo, mouse. As to conditions: for percentage of ConA-induced response (mean+/−SEM): ELISPOT-IFNγ, vaccination 100 μg s.c. d0 and d14, spleen d21. An excerpt: Briefly, 14 β/A2/DR3 mice were assigned randomly (based on mouse sex and age) to two experimental groups, each immunized with a specific vaccination peptide (vacc-pAg) combined to a common helper peptide (h-pAg) (as outlined in Table 7 below). The vacc-pAg were compared in couples (group 1 vs. group 2). Thereby, both native and optimized versions of a single peptide were compared in each wave.
The animals were immunized on day o (do) with a prime injection, and on d14 with a boost injection. Each mouse was injected s.c. at tail base with 100 μL of an oil-based emulsion that contained: • 100 μg of vacc-pAg (25 μL of 4 mg/mL stock per mouse); • 150 μg of h-pAg (15 μL of 10 mg/mL stock per mouse); • 10 μL of PBS to reach a total volume of 50 μL (per mouse); • Incomplete Freund's Adjuvant (IFA) added at 1:1 (v:v) ratio (50 μL per mouse).
Seven days after the boost injection (i.e. on d21), the animals were euthanized and the spleen was harvested. Splenocytes were prepared by mechanical disruption of the organ followed by 70 μm-filtering and Ficoll density gradient purification.
The splenocytes were immediately used in an ELISPOT-IFNγ assay (Table 8). Experimental conditions were repeated in quadruplets, using 2*10^5 total splenocytes per well, and were cultured in presence of vacc-pAg (10 μM), Concanavalin A (ConA, 2.5 μg/mL) or medium-only to assess for their capacity to secrete IFNγ. The commercial ELISPOT-IFNγ kit (Diaclone Kit Mujrine IFNγ ELISpot) was used following the manufacturer's instructions, and the assay was performed after about 16 h of incubation.
Spots were counted on a Grand ImmunoSpot® S6 Ultimate UV Image Analyzer interfaced to the ImmunoSpot 5.4 software (CTL-Europe). Data plotting and statistical analysis were performed with the Prism-5 software (GraphPad Software Inc.).
The data were then normalized as a number of specific spots (the average counts obtained in the ‘medium only’ condition being subtracted) per 10^6 total T cells.
The individual average values (obtained from the quadruplicates) were next used to plot the group average values (see FIG. 3A). As the functional capacity of T cells might vary from individual to individual, the data were also expressed as the percentage of the ConA response per individual (see FIG. 3B).

The test system of a further experiment is U87-MG cells. The experiment in a line: In vitro cytotoxicity of CD3+ T cells from immunized mice against U87 cells. In kind it is cell-based. As to conditions: CD3+ T cells of mice immunized with the peptide; 72 hours co-culture; DAPI/annexin V cytometry. As for the experimental part:
Briefly, CD8 T cells from mice immunized with IL13RA2-H or […] were used. These cells were obtained after sorting of splenocyte from immunized mice and were placed on top of U87 cells (tumor cells expressing IL13RA2).
In more detail, CD3^+ T cells were purified from splenocytes of HHD mice immunized with IL13RA2-H ([…], SEQ ID NO: 1) or IL13RA2-B ([…], SEQ ID NO: 18). To this end, B6 β2 m^ko HHD/DR3 mice were injected s.c. at tail base with 100 μL of an oil-based emulsion containing vaccination peptide plus helper peptide plus CFA (complete Freund's adjuvant), at day 0 and day 14 as described in Example 5. On d21, i.e. seven days after the boost injection, the animals were euthanized and the spleen was harvested. Splenocytes were prepared by mechanical disruption of the organ. CD3+ purification was performed using the mouse total T cells isolation kit from Miltenyi biotec using the recommended procedure. […]
U87-MG cells were seeded at 6×10^5 cells/well in flat-bottomed 24-well culture plates and incubated for 24 h at 37° C. in DMEM (Dulbecco's Modified Eagle Medium) containing 10% of FCS (fetal calf serum) and antibiotics. […] 72 hours after co-culture of U87-MG cells and CD3+ T cells, all cells from the wells were harvested and specific U87-MG cell death was evaluated after immunostaining of CD45 negative cells with DAPI and fluorescent annexin V followed by cytometry analysis.

The subject of experiment [1] is unresectable or metastatic melanoma. As to conditions: patients; cited from earlier work.
Experiment [2] concerns renal cell carcinoma (RCC). The following applies: patients; cited from earlier work.
The next experiment has as its system NSCLC. The following applies: patients; cited from earlier work.
Setting [3] is: ex vivo re-stimulation with IL13RA2-B pAg 10 μM.
The mark [4] stands for this setting: ex vivo re-stimulation with IL13RA2-H pAg 10 μM.

Turning to “1A9V: SEQ ID NO: 1 with tryptophan at position 1 substituted by alanine and isoleucine at position 9 by valine (Eguchi et al., 2006) (ALPFGFILV; listed as Homo sapiens)”, the “binding affinity to HLA-A*0201 compared among peptides” value with HLA-A*0201 is “lowest affinity of the peptides tested”.
As to “FLPFGFILV (sequence variant) [SEQ ID NO: 18]”, the “binding to HLA-A*0201” value in the experiment with HLA-A*0201 is recorded as “binds strongly”. For the same substance, the “concentration inducing 20% of expression of the HLA-A*0201” value in the experiment with HLA-A*0201 came out at 4.4 µM. Further, the “binding affinity to HLA-A*0201 compared among peptides” value with HLA-A*0201 is “considerably higher binding affinity to HLA-A*0201 than all other peptides tested”. Besides, the Mean fluorescence intensity in the experiment with HLA-A*0201 (peptide at 0.1 μM) is recorded as 9.9; with HLA-A*0201 (peptide at 1 μM) it was 12.18; in the experiment with HLA-A*0201 (peptide at 10 μM), 40.77; in the experiment with HLA-A*0201 (peptide at 100 μM), 112.05. Further, in the experiment with HLA-A*0201 (relative affinity = concentration inducing 20% of HLA-A*0201 expression / that of reference peptide HIV pol 589-597, lower = stronger), the “In vitro binding affinity” value is recorded as 0.49. The entries for the “percentage of ConA-induced response (mean+/−SEM)” value in the experiment on β/A2/DR3 mice (setting [3]) and with β/A2/DR3 mice (setting [4]) were 56.3%+/−18.1 and 32.3%+/−11.8, respectively. For the same substance, in the experiment with β/A2/DR3 mice (compared to IL13RA2-H-vaccinated animals), the “T cell responses in the ELISPOT-IFNγ assay” value was “improved T cell responses”. Besides, in the experiment with U87-MG cells, the U87 cell lysis result is “U87 cell lysis was observed”.
Take Ipilumumab: anti-CTLA-4 antibody: the three-year survival rate entry in experiment [1] is listed as “around 20%”.
Consider “Nivolumab: check point inhibitor targeting PD1”, for which the three-year survival rate in experiment [2] is recorded as 44%; in the experiment on NSCLC, 18%.
Consider “WLPFGFILI (listed as Homo sapiens) [SEQ ID NO: 1]”, for which the “binding to HLA-A*0201” value with HLA-A*0201 is “does not bind”. The “concentration inducing 20% of expression of the HLA-A*0201” value with HLA-A*0201 was 100 µM. For the same substance, the Mean fluorescence intensity with HLA-A*0201 (peptide at 0.1 μM) is 7.46; with HLA-A*0201 (peptide at 1 μM) it was 9.41; with HLA-A*0201 (peptide at 10 μM), 11.61; with HLA-A*0201 (peptide at 100 μM) it was 18.64. The “percentage of ConA-induced response (mean+/−SEM)” value with β/A2/DR3 mice (setting [3]) is recorded as 2.0%+/−0.8; in the experiment on β/A2/DR3 mice (setting [4]), 1.1%+/−0.8. The U87 cell lysis result in the experiment with U87-MG cells is recorded as “not”.
